We go through three molecules from patent publication US20040180399A1 (Pfizer, published 2004).

First the molecules themselves.
B2: IL-22BP-Ig (Fc fusion)
chain: TQSTHESLKPQRVQFQSRNFHNILQWQPGRALTGNSSVYFVQYKIYGQRQWKNKEDCWGTQELSCDLTSETSDIQEPYYGRVRAASAGSYSEWSMTPRFTPWWETKIDPPVMNITQVNGSLLVILHAPNLPYRYQKEKNVSIEDYYELLYRVFIINNSLEKEQKVYEGAHRAVEIEALTPHSSYCVVAEIYQPMLDRRSQRSEERCVEIP
notes: Used as supernatant of transiently transfected HEK293 cells; it may begin with Met or Met Met; also called IL-TIFR-Ig; IL-22BP fusion protein; not shown: hinge, CH2 and CH3 domains of murine IgG3 isotype heavy chain, amplified from IgG3 anti-TNP hybridoma C3110

The target in the test “IL-22BP-Ig” is B2. Nature of the test: ELISA, IL-TIF/IL-22 coated on plate, HEK293 supernatant, anti-Ig peroxidase detection. As to the method: (§1) Assays were then carried out by coating polystyrene plates with either 0.083 mg/ml of recombinant human IL-TIF/IL-22, or […] bovine serum albumin, in 20 mm Tris. Glycine buffer containing 30 mm NaCl, pH 9.2, overnight, at 4° C. Following washing in PBS buffer plus Tween 20 (10⁻⁴) plates were blocked with PBS plus 1% BSA for two hours, and then 50 μl of supernatant from transiently transfected HEK293 cells was added. Plates were then incubated for 2 hours, at 37° C. Any bound fusion protein was detected, using murine anti-Ig polyclonal antibodies coupled to peroxidase. Detection was carried out using the peroxidase substrate “TMB”, or (3,3′,5, 5′-tetramethylbenzidine), and stopped by 20 μl H₂S0_{4.}

The target in another test is T1, bovine serum albumin (bovine, UniProt P02769 25-607).
T1 construct: Negative control coating in the ELISA; also called BSA
Briefly: ELISA, coated plate, HEK293 supernatant, anti-Ig peroxidase detection. The procedure:
as §1
In general terms: ELISA stands for enzyme-linked immunosorbent assay.

T1 sequence (P02769 25-607 limits assumed): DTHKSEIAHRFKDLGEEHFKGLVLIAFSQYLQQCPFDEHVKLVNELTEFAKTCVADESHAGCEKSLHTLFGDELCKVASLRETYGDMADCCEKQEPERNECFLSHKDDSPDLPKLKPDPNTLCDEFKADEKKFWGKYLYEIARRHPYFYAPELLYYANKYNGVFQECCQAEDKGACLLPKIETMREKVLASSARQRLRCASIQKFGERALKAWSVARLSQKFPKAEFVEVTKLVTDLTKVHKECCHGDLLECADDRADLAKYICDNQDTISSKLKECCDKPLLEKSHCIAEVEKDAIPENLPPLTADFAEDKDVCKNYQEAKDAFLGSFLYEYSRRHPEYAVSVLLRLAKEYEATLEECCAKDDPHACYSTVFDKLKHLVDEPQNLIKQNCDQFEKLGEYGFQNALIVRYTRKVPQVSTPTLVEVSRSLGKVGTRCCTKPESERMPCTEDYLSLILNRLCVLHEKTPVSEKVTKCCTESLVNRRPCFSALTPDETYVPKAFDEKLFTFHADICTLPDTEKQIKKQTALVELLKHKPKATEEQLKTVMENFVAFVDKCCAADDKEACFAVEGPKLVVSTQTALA

B1: recombinant human IL-TIF/IL-22 (ligand, UniProt Q9GZX6 34-179, looked up)
chain: APISSHCRLDKSNFQQPYITNRTFMLAKEASLADNNTDVRLIGEKLFHGVSMSERCYLMKQVLNFTLEEVLFPQSDRFQPYMQEVVPFLARLSNRLSTCHIEGDDLHIQRNVQKLKDTVKKLGESGEIKAIGELDLLFMSLRNACI
Regarding B1, in the test with IL-22BP-Ig, the binding result was “binds”.

Take B2: in the test with bovine serum albumin, the binding result is recorded as “no binding”.

B3: IL-22R-Ig (Fc fusion, UniProt Q8N6P7 16-228, looked up)
chain: HAPEDPSDLLQHVKFQSSNFENILTWDSGPEGTPDTVYSIEYKTYGERDWVAKKGCQRITRKSCNLTVETGNLTELYYARVTAVSAGGRSATKMTDRFSSLQHTTLKPPDVTCISKVRSIQMIVHPTPTPIRAGDGHRLTLEDIFHDLFYHLELQVNRTYQMHLGGKQREYEFFGLTPDTEFLGTIMICVPTWAKESAPYMCRVKTLPDRTWT
notes: Used as supernatant of transiently transfected HEK293 cells; also called fusion protein of IL-22R and the IgG3 Fc fragment; not shown: IgG3 Fc fragment, made 'in similar fashion' to the murine IgG3 hinge-CH2-CH3 of IL-TIFR-Ig
Turning to B3, the binding result with bovine serum albumin is recorded as “no binding”.
